According to patent US20250320281A1:

How the values were obtained:
Test in all cases: cell-based or functional assay
[1] = biological target: HIV-1 Env of isolate MGRM-A-011 (pseudovirus) (HIV-1)
[2] = biological target: HIV-1 Env of isolate MGRM-A-001 (pseudovirus) (HIV-1)
[3] = biological target: HIV-1 Env of isolate MGRM-A-005 (pseudovirus) (HIV-1)
[4] = biological target: HIV-1 Env of isolate 92UG031 (pseudovirus) (HIV-1)
[5] = biological target: HIV-1 Env of isolate MGRM-A-003 (pseudovirus) (HIV-1)
[6] = biological target: HIV-1 Env of isolate CMU02 (pseudovirus) (HIV-1)
[7] = biological target: HIV-1 Env of isolate MGRM-A-002 (pseudovirus) (HIV-1)
[8] = biological target: HIV-1 Env of isolate 92UG037 (pseudovirus) (HIV-1)
[9] = biological target: HIV-1 Env of isolate MGRM-AE-001 (pseudovirus) (HIV-1)
[10] = biological target: HIV-1 Env of isolate 94KE105 (pseudovirus) (HIV-1)
[11] = biological target: HIV-1 Env of isolate MGRM-AE-002 (pseudovirus) (HIV-1)
[12] = biological target: HIV-1 Env of isolate MGRM-A-013 (pseudovirus) (HIV-1)
[13] = biological target: HIV-1 Env of isolate 92WR024 (pseudovirus) (HIV-1)
[14] = biological target: HIV-1 Env of isolate 92WR009 (pseudovirus) (HIV-1)
[15] = biological target: HIV-1 Env of isolate MGRM-AE-003 (pseudovirus) (HIV-1)
[16] = biological target: HIV-1 Env of isolate MGRM-A-008 (pseudovirus) (HIV-1)
[17] = biological target: HIV-1 Env of isolate 92TH021 (pseudovirus) (HIV-1)
[18] = biological target: HIV-1 Env of isolate MGRM-A-007 (pseudovirus) (HIV-1)
[19] = biological target: HIV-1 Env of isolate 92WR020 (pseudovirus) (HIV-1)
[20] = biological target: HIV-1 Env of isolate 92WR026 (pseudovirus) (HIV-1)
[21] = biological target: HIV-1 Env of isolate 92WR021 (pseudovirus) (HIV-1)
[22] = biological target: HIV-1 Env of isolate 93UG077 (pseudovirus) (HIV-1)
[23] = biological target: HIV-1 Env of isolate 94UG103 (pseudovirus) (HIV-1)
[24] = biological target: HIV-1 Env of isolate MGRM-A-014 (pseudovirus) (HIV-1)
[25] = biological target: HIV-1 Env of isolate MGRM-A-012 (pseudovirus) (HIV-1)
[26] = biological target: HIV-1 Env of isolate MGRM-A-006 (pseudovirus) (HIV-1)
[27] = biological target: HIV-1 Env of isolate MGRM-A-010 (pseudovirus) (HIV-1)
[28] = biological target: HIV-1 Env of isolate 93WR029 (pseudovirus) (HIV-1)
[29] = biological target: HIV-1 Env of isolate 92RW008 (pseudovirus) (HIV-1)
[30] = biological target: HIV-1 Env of isolate MGRM-A-009 (pseudovirus) (HIV-1)
[31] = biological target: HIV-1 Env of isolate MGRM-A-004 (pseudovirus) (HIV-1)
[32] = biological target: HIV-1 Env of isolate VLGCA1 (pseudovirus) (HIV-1)

B1: PGT-123 (4858_P08) (antibody, V domains shown)
VH: QLHLQESGPGLVKPPETLSLTCSVSGASINDAYWSWIRQSPGKRPEWVGYVHHSGDTNYNPSLKRRVTFSLDTAKNEVSLKLVDLTAADSATYFCARALHGKRIYGIVALGELFTYFYMDVWGKGTAVTVSS
VL: SSMSVSPGETAKISCGKESIGSRAVQWYQQKPGQPPSLIIYNNQDRPAGVPERFSASPDFRPGTTATLTITNVDAEDEADYYCHIYDARGGTNWVFDRGTTLTVL
Work on B1 yielded an IC50 (µg/mL), pseudovirus neutralization [1] greater than 50 µg/mL, an IC50 (µg/mL), pseudovirus neutralization [2] greater than 50 µg/mL and an IC50 (µg/mL), pseudovirus neutralization [3] greater than 50 µg/mL. The IC50 (µg/mL), pseudovirus neutralization [4] was greater than 50 µg/mL, the IC50 (µg/mL), pseudovirus neutralization [5] was 0.495 µg/mL and the IC50 (µg/mL), pseudovirus neutralization [6] was greater than 50 µg/mL. For the same binder, the IC50 (µg/mL), pseudovirus neutralization [7] was 0.011 µg/mL, the IC50 (µg/mL), pseudovirus neutralization [8] was 0.023 µg/mL and the IC50 (µg/mL), pseudovirus neutralization [9] was greater than 50 µg/mL. It also gave an IC50 (µg/mL), pseudovirus neutralization [10] of 0.024 µg/mL, an IC50 (µg/mL), pseudovirus neutralization [11] greater than 50 µg/mL and an IC50 (µg/mL), pseudovirus neutralization [12] of 0.565 µg/mL. It also gave an IC50 (µg/mL), pseudovirus neutralization [13] greater than 50 µg/mL, an IC50 (µg/mL), pseudovirus neutralization [14] of 15.7 µg/mL and an IC50 (µg/mL), pseudovirus neutralization [15] greater than 50 µg/mL. For the same binder, the IC50 (µg/mL), pseudovirus neutralization [16] was greater than 50 µg/mL, the IC50 (µg/mL), pseudovirus neutralization [17] was greater than 50 µg/mL and the IC50 (µg/mL), pseudovirus neutralization [18] was greater than 50 µg/mL. For the same binder, the IC50 (µg/mL), pseudovirus neutralization [19] was 0.002 µg/mL, the IC50 (µg/mL), pseudovirus neutralization [20] was 0.012 µg/mL and the IC50 (µg/mL), pseudovirus neutralization [21] was 0.005 µg/mL. The IC50 (µg/mL), pseudovirus neutralization [22] was 0.028 µg/mL, the IC50 (µg/mL), pseudovirus neutralization [23] was 0.678 µg/mL and the IC50 (µg/mL), pseudovirus neutralization [24] was 0.003 µg/mL. For the same binder, the IC50 (µg/mL), pseudovirus neutralization [25] was 0.192 µg/mL, the IC50 (µg/mL), pseudovirus neutralization [26] was greater than 50 µg/mL and the IC50 (µg/mL), pseudovirus neutralization [27] was 0.705 µg/mL. For the same binder, the IC50 (µg/mL), pseudovirus neutralization [28] was greater than 50 µg/mL, the IC50 (µg/mL), pseudovirus neutralization [29] was 0.003 µg/mL and the IC50 (µg/mL), pseudovirus neutralization [30] was 0.004 µg/mL. For the same binder, the IC50 (µg/mL), pseudovirus neutralization [31] was greater than 50 µg/mL and the IC50 (µg/mL), pseudovirus neutralization [32] was greater than 50 µg/mL.

B2: PGT-126 (5141_B17) (antibody, V domains shown)
VH: QPQLQESGPGLVEASETLSLTCTVSGDSTAACDYFWGWVRQPPGKGLEWIGGLSHCAGYYNTGWTYHNPSLKSRLTISLDTPKNQVFLKLNSVTAADTAIYYCARFDGEVLVYHDWPKPAWVDLWGRGTLVTVSS
VL: QSALTQPPSASGSPGQSISISCTGTSNRFVSWYQQHPGKAPKLVIYGVNKRPSGVPDRFSGSKSGNTASLTVSGLQTDDEAVYYCSSLVGNWDVIFGGGTKLTVL
B2 gave an IC50 (µg/mL), pseudovirus neutralization [1] greater than 50 µg/mL, an IC50 (µg/mL), pseudovirus neutralization [2] greater than 50 µg/mL and an IC50 (µg/mL), pseudovirus neutralization [3] greater than 50 µg/mL. For the same binder, the IC50 (µg/mL), pseudovirus neutralization [4] was greater than 50 µg/mL, the IC50 (µg/mL), pseudovirus neutralization [5] was greater than 50 µg/mL and the IC50 (µg/mL), pseudovirus neutralization [6] was greater than 50 µg/mL. The IC50 (µg/mL), pseudovirus neutralization [7] was 0.015 µg/mL, the IC50 (µg/mL), pseudovirus neutralization [8] was 0.011 µg/mL and the IC50 (µg/mL), pseudovirus neutralization [9] was 9.68 µg/mL. The IC50 (µg/mL), pseudovirus neutralization [10] was 0.006 µg/mL, the IC50 (µg/mL), pseudovirus neutralization [11] was greater than 50 µg/mL and the IC50 (µg/mL), pseudovirus neutralization [12] was 0.006 µg/mL. For the same binder, the IC50 (µg/mL), pseudovirus neutralization [13] was 42 µg/mL, the IC50 (µg/mL), pseudovirus neutralization [14] was greater than 50 µg/mL and the IC50 (µg/mL), pseudovirus neutralization [15] was greater than 50 µg/mL. The IC50 (µg/mL), pseudovirus neutralization [16] was greater than 50 µg/mL, the IC50 (µg/mL), pseudovirus neutralization [17] was 0.197 µg/mL and the IC50 (µg/mL), pseudovirus neutralization [18] was greater than 50 µg/mL. The IC50 (µg/mL), pseudovirus neutralization [19] was 0.006 µg/mL, the IC50 (µg/mL), pseudovirus neutralization [20] was 0.008 µg/mL and the IC50 (µg/mL), pseudovirus neutralization [21] was 0.006 µg/mL. For the same binder, the IC50 (µg/mL), pseudovirus neutralization [22] was 0.02 µg/mL, the IC50 (µg/mL), pseudovirus neutralization [23] was 0.008 µg/mL and the IC50 (µg/mL), pseudovirus neutralization [24] was 0.01 µg/mL. For the same binder, the IC50 (µg/mL), pseudovirus neutralization [25] was 0.097 µg/mL, the IC50 (µg/mL), pseudovirus neutralization [26] was greater than 50 µg/mL and the IC50 (µg/mL), pseudovirus neutralization [27] was 0.002 µg/mL. For the same binder, the IC50 (µg/mL), pseudovirus neutralization [28] was greater than 50 µg/mL, the IC50 (µg/mL), pseudovirus neutralization [29] was 0.008 µg/mL and the IC50 (µg/mL), pseudovirus neutralization [30] was 0.004 µg/mL. It also gave an IC50 (µg/mL), pseudovirus neutralization [31] greater than 50 µg/mL and an IC50 (µg/mL), pseudovirus neutralization [32] greater than 50 µg/mL.

B3: PGT-125 (5123_A06) (antibody, V domains shown)
VH: QSQLQESGPRLVEASETLSLTCNVSGESTGACTYFWGWVRQAPGKGLEWIGSLSHCQSFWGSGWTFHNPSLKSRLTISLDTPKNQVFLKLTSLTAADTATYYCARFDGEVLVYNHWPKPAWVDLWGRGIPVTVSS
VL: QSALTQPPSASGSPGQSITISCNGTATNFVSWYQQFPDKAPKLIIFGVDKRPPGVPDRFSGSRSGTTASLTVSRLQTDDEAVYYCGSLVGNWDVIFGGGTTLTVL
For B3, the IC50 (µg/mL), pseudovirus neutralization [1] was greater than 50 µg/mL, the IC50 (µg/mL), pseudovirus neutralization [2] was 12.4 µg/mL and the IC50 (µg/mL), pseudovirus neutralization [3] was greater than 50 µg/mL. For the same binder, the IC50 (µg/mL), pseudovirus neutralization [4] was greater than 50 µg/mL, the IC50 (µg/mL), pseudovirus neutralization [5] was greater than 50 µg/mL and the IC50 (µg/mL), pseudovirus neutralization [6] was greater than 50 µg/mL. The IC50 (µg/mL), pseudovirus neutralization [7] was 0.013 µg/mL, the IC50 (µg/mL), pseudovirus neutralization [8] was 0.005 µg/mL and the IC50 (µg/mL), pseudovirus neutralization [9] was 2.95 µg/mL. It also gave an IC50 (µg/mL), pseudovirus neutralization [10] of 0.004 µg/mL, an IC50 (µg/mL), pseudovirus neutralization [11] greater than 50 µg/mL and an IC50 (µg/mL), pseudovirus neutralization [12] of 0.014 µg/mL. For the same binder, the IC50 (µg/mL), pseudovirus neutralization [13] was 35.5 µg/mL, the IC50 (µg/mL), pseudovirus neutralization [14] was 0.144 µg/mL and the IC50 (µg/mL), pseudovirus neutralization [15] was 0.092 µg/mL. The IC50 (µg/mL), pseudovirus neutralization [16] was greater than 50 µg/mL, the IC50 (µg/mL), pseudovirus neutralization [17] was 0.006 µg/mL and the IC50 (µg/mL), pseudovirus neutralization [18] was greater than 50 µg/mL. For the same binder, the IC50 (µg/mL), pseudovirus neutralization [19] was 0.004 µg/mL, the IC50 (µg/mL), pseudovirus neutralization [20] was 0.007 µg/mL and the IC50 (µg/mL), pseudovirus neutralization [21] was 0.005 µg/mL. It also gave an IC50 (µg/mL), pseudovirus neutralization [22] of 0.012 µg/mL, an IC50 (µg/mL), pseudovirus neutralization [23] of 0.008 µg/mL and an IC50 (µg/mL), pseudovirus neutralization [24] of 13.9 µg/mL. It also gave an IC50 (µg/mL), pseudovirus neutralization [25] of 0.177 µg/mL, an IC50 (µg/mL), pseudovirus neutralization [26] greater than 50 µg/mL and an IC50 (µg/mL), pseudovirus neutralization [27] of 0.004 µg/mL. The IC50 (µg/mL), pseudovirus neutralization [28] was greater than 50 µg/mL, the IC50 (µg/mL), pseudovirus neutralization [29] was 0.004 µg/mL and the IC50 (µg/mL), pseudovirus neutralization [30] was 0.009 µg/mL. For the same binder, the IC50 (µg/mL), pseudovirus neutralization [31] was greater than 50 µg/mL and the IC50 (µg/mL), pseudovirus neutralization [32] was 0.078 µg/mL.
